Data from patent publication US5989823, “Homogeneous detection of a target through nucleic acid ligand-ligand beacon interaction” (NeXstar Pharmaceuticals, Inc.).

Tests used:
[1] = biological target: T1, PDGF (platelet derived growth factor) (Homo sapiens, UniProt P01127 P01127:82-190); assay: competition; no change in beacon fluorescence; 100 nM aptamer, PBSM, 4 uM tRNA, 37 C; conditions: chain copies: 2
Procedure: Specificity of Nucleic Acid Ligand Interaction with Target in the Presence of Ligand Beacon In the previous examples, a concentration-dependent signal reduction was observed when the target was added. This should not be observed when the wrong target protein is added. This point is illustrated in FIG. 7, where TAQ-nucleic acid ligand (100 nM) was mixed with increasing concentrations of PDGF in PBSM buffer containing 4 μM tRNA at 37° C. for 10 min. Then 110 nM TAQ-ligand beacon was added, incubated for an additional 10 min at the same temperature and fluorescence was measured.

[2] = biological target: T1, PDGF (platelet derived growth factor); assay: competition; ligand beacon (SEQ ID NO:2) fluorescence decreases with PDGF; 100 nM aptamer, PBSM (1 mM MgCl2), 4 uM tRNA, 30 C; also in human plasma at 37 C; conditions: chain copies: 2
Procedure: The PDGF ligand beacon was used in an assay in which 100 nM PDGF nucleic acid ligand above was mixed with an increasing concentration of PDGF for 10 minutes at 30° C. […] in PBSM buffer containing 4 µM tRNA. Then, 100 nM PDGF ligand beacon was added and the mixture was incubated for 10 minutes at 30° C. A measurement of fluorescein emission at 530 nm was made for each concentration of PDGF using 488 nm monochromatic laser light for excitation in a 96 well format Vistra Fluorimager SI. […] This is the expected result, because as the concentration of PDGF increases, the concentration of PDGF nucleic acid ligand that is not bound to PDGF decreases. Thus, there is a smaller pool of PDGF nucleic acid ligand for the PDGF ligand beacon to hybridize to.

T1 sequence (P01127 82-190, one chain of several): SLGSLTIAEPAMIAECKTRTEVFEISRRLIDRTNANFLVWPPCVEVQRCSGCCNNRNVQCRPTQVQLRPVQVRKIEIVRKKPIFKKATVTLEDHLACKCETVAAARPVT

| Binder | binding result [1] | binding result [2] |
| --- | --- | --- |
| TAQ nucleic acid ligand (ssDNA) DNA: TGGCGGAGCGATCATCTCAGAGCATTCTTAGCGTTTTGTTCTTGTGTATGA | no binding |  |
| TGGGAGGGCGCGTTCTTCGTGGTTACTTTTAGTCCCGT (ssDNA) [PDGF nucleic acid ligand] |  | binds |
